Results: patent US20170015758A1

What was measured:
PD-L1 (human) = PD-L1 (human) (UniProt Q9NZQ7); assay: cell-based or functional assay
PD1 (human) = PD1 (human) (UniProt Q15116); assay: cell-based or functional assay
Sequence of UniProt Q15116 (Q15116 25-288): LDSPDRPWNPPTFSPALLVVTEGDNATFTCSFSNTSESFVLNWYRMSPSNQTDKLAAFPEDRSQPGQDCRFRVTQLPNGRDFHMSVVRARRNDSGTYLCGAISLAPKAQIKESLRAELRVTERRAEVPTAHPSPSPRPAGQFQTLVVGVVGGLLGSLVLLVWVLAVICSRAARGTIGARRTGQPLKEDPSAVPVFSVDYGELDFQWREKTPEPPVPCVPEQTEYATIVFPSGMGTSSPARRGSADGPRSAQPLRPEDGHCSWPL

Sequence of UniProt Q9NZQ7 (Q9NZQ7 19-290): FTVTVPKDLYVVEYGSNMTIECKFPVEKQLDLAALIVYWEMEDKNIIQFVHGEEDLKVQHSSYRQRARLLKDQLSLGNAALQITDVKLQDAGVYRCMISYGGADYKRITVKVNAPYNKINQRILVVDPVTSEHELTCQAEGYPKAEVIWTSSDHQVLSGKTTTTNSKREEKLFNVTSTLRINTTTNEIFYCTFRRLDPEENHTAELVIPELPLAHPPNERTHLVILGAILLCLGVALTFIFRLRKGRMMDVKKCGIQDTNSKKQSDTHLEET

Substance | tumor-specific cytolytic activity, fresh T cells, PD-L1 inhibition alone (PD-L1 (human)) [%] | MEDI-565-mediated cytolysis of SW1463 with fresh T cells in the presence of anti-PD1 (PD1 (human)) [%] | tumor killing in second round, T cells previously incubated with MEDI-565 and tumor, anti-PD1 added (PD1 (human)) [%] | tumor-specific cytolytic activity, fresh T cells, PD1 inhibition alone (PD1 (human)) [%]
Anti-PD-L1 (clone MIH1) (antibody) | 49.9 |  |  | 
Anti-PD1 (clone J116) (antibody) |  | 66.3 | 37.1 | 49.9
